From US20170051072A1

What was measured:
[1] = target: human mesothelin with His-tag (in house) (human) (UniProt Q13421); assay: ELISA, IgG on captured His-huMesothelin (in house)
[2] = target: human mesothelin with His-tag (R&D Systems) (human) (UniProt Q13421); assay: ELISA, IgG on captured His-huMesothelin (R&D)
Sequence of human mesothelin with His-tag (R&D Systems) (human) (Q13421 other isoform, or with tags, fused parts or gaps limits assumed): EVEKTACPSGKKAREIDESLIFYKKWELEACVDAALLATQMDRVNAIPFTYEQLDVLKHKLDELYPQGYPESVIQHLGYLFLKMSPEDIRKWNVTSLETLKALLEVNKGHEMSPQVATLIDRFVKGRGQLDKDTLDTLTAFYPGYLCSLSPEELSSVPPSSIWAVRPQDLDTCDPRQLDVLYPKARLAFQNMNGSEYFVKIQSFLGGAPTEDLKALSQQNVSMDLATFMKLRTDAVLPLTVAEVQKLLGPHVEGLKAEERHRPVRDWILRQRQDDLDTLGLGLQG

Sequence of human mesothelin with His-tag (in house) (human) (Q13421 other isoform, or with tags, fused parts or gaps limits assumed): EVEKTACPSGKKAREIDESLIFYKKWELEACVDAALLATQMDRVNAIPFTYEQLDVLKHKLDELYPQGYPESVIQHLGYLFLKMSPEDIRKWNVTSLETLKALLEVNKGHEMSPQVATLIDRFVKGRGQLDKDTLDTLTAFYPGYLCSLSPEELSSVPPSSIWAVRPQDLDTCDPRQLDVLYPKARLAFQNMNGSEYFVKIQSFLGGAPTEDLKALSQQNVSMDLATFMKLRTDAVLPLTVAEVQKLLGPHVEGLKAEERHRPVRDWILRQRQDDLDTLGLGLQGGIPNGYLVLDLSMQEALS

IgG VH HC_SS1/15436 + VL LC_SS1/15455 (antibody)
EC50 [1]: 0.0411 µg/mL
EC50 [2]: 0.0461 µg/mL
